Reference: IntAct's records for PubMed 28062662

B1: Glutaryl-CoA dehydrogenase, mitochondrial (Homo sapiens), Q92947 (parent)
chain: MALRGVSVRLLSRGPGLHVLRTWVSSAAQTEKGGRTQSQLAKSSRPEFDWQDPLVLEEQLTTDEILIRDTFRTYCQERLMPRILLANRNEVFHREIISEMGELGVLGPTIKGYGCAGVSSVAYGLLARELERVDSGYRSAMSVQSSLVMHPIYAYGSEEQRQKYLPQLAKGELLGCFGLTEPNSGSDPSSMETRAHYNSSNKSYTLNGTKTWITNSPMADLFVVWARCEDGCIRGFLLEKGMRGLSAPRIQGKFSLRASATGMIIMDGVEVPEENVLPGASSLGGPFGCLNNARYGIAWGVLGASEFCLHTARQYALDRMQFGVPLARNQLIQKKLADMLTEITLGLHACLQLGRLKDQDKAAPEMVSLLKRNNCGKALDIARQARDMLGGNGISDEYHVIRHAMNLEAVNTYEGTHDIHALILGRAITGIQAFTASK
partner: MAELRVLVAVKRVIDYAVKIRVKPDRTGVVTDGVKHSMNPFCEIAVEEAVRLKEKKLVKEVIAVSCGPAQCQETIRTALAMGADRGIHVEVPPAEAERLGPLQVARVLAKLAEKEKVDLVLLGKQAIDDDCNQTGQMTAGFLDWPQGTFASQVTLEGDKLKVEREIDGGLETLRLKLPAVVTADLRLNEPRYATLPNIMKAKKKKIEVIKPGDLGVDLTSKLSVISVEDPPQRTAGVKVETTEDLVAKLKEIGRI

Variants of: B1
Conditions: with etfb_human ETFB

Variant | effect of a mutation on the interaction
MALRGVSVRLLSRGPGLHVLRTWVSSAAQTEKGGRTQSQLAKSSRPEFDWQDPLVLEEQLTTDEILIRDTFRTYCQERLMPRILLANRNEVFHREIISEMGELGVLGPTIKGHGCAGVSSVAYGLLARELERVDSGYRSAMSVQSSLVMHPIYAYGSEEQRQKYLPQLAKGELLGCFGLTEPNSGSDPSSMETRAHYNSSNKSYTLNGTKTWITNSPMADLFVVWARCEDGCIRGFLLEKGMRGLSAPRIQGKFSLRASATGMIIMDGVEVPEENVLPGASSLGGPFGCLNNARYGIAWGVLGASEFCLHTARQYALDRMQFGVPLARNQLIQKKLADMLTEITLGLHACLQLGRLKDQDKAAPEMVSLLKRNNCGKALDIARQARDMLGGNGISDEYHVIRHAMNLEAVNTYEGTHDIHALILGRAITGIQAFTASK [Y113H] | increasing interaction strength
MALRGVSVRLLSRGPGLHVLRTWVSSAAQTEKGGRTQSQLAKSSRPEFDWQDPLVLEEQLTTDEILIRDTFRTYCQERLMPRILLANRNEVFHREIISEMGELGVLGPTIKGYGCAGVSSVAYGLLARELERVDSGYRSAMSVQSSLVMHPIYAYGSEEQRQKYLPQLAKGELLGCFGLTEPNSGSDPSSMETRAHYNSSNKSYTLNGTKTWITNSLMADLFVVWARCEDGCIRGFLLEKGMRGLSAPRIQGKFSLRASATGMIIMDGVEVPEENVLPGASSLGGPFGCLNNARYGIAWGVLGASEFCLHTARQYALDRMQFGVPLARNQLIQKKLADMLTEITLGLHACLQLGRLKDQDKAAPEMVSLLKRNNCGKALDIARQARDMLGGNGISDEYHVIRHAMNLEAVNTYEGTHDIHALILGRAITGIQAFTASK [P217L] | decreasing interaction strength
MALRGVSVRLLSRGPGLHVLRTWVSSAAQTEKGGRTQSQLAKSSRPEFDWQDPLVLEEQLTTDEILIRDTFRTYCQERLMPRILLANRNEVFHLEIISEMGELGVLGPTIKGYGCAGVSSVAYGLLARELERVDSGYRSAMSVQSSLVMHPIYAYGSEEQRQKYLPQLAKGELLGCFGLTEPNSGSDPSSMETRAHYNSSNKSYTLNGTKTWITNSPMADLFVVWARCEDGCIRGFLLEKGMRGLSAPRIQGKFSLRASATGMIIMDGVEVPEENVLPGASSLGGPFGCLNNARYGIAWGVLGASEFCLHTARQYALDRMQFGVPLARNQLIQKKLADMLTEITLGLHACLQLGRLKDQDKAAPEMVSLLKRNNCGKALDIARQARDMLGGNGISDEYHVIRHAMNLEAVNTYEGTHDIHALILGRAITGIQAFTASK [R94L] | increasing interaction strength
MALRGVSVRLLSRGPGLHVLRTWVSSAAQTEKGGRTQSQLAKSSRPEFDWQDPLVLEEQLTTDEILIRDTFRTYCQERLMPRILLANRNEVFHREIISEMGELGVLGPTIKGYGYAGVSSVAYGLLARELERVDSGYRSAMSVQSSLVMHPIYAYGSEEQRQKYLPQLAKGELLGCFGLTEPNSGSDPSSMETRAHYNSSNKSYTLNGTKTWITNSPMADLFVVWARCEDGCIRGFLLEKGMRGLSAPRIQGKFSLRASATGMIIMDGVEVPEENVLPGASSLGGPFGCLNNARYGIAWGVLGASEFCLHTARQYALDRMQFGVPLARNQLIQKKLADMLTEITLGLHACLQLGRLKDQDKAAPEMVSLLKRNNCGKALDIARQARDMLGGNGISDEYHVIRHAMNLEAVNTYEGTHDIHALILGRAITGIQAFTASK [C115Y] | increasing interaction strength
MALRGVSVRLLSRGPGLHVLRTWVSSAAQTEKGGRTQSQLAKSSRPEFDWQDPLVLEEQLTTDEILIRDTFRTYCQERLMPRILLANRNEVFHREIISEMGELGVLGPTIKGYGCAGVSSVAYGLLARELERVDSGYRSAMSVQSSLVMHPIYAHGSEEQRQKYLPQLAKGELLGCFGLTEPNSGSDPSSMETRAHYNSSNKSYTLNGTKTWITNSPMADLFVVWARCEDGCIRGFLLEKGMRGLSAPRIQGKFSLRASATGMIIMDGVEVPEENVLPGASSLGGPFGCLNNARYGIAWGVLGASEFCLHTARQYALDRMQFGVPLARNQLIQKKLADMLTEITLGLHACLQLGRLKDQDKAAPEMVSLLKRNNCGKALDIARQARDMLGGNGISDEYHVIRHAMNLEAVNTYEGTHDIHALILGRAITGIQAFTASK [Y155H] | increasing interaction strength
MALRGVSVRLLSRGPGLHVLRTWVSSAAQTEKGGRTQSQLAKSSRPEFDWQDPLVLEEQLTTDEILIRDTFRTYCQERLMPRILLANRNEVFHREIISEMGELGVLGPTIKGYGCAGVSSVAYGLLARELERVDSGYRSAMSVQSSLVMHPIYAYGSEEQRQKYLPQLAKGELLGCFGLTEPNSGSDPSSMETRAHYNSSNKSYTLNGTKTWITNSPMADLFVVWAPCEDGCIRGFLLEKGMRGLSAPRIQGKFSLRASATGMIIMDGVEVPEENVLPGASSLGGPFGCLNNARYGIAWGVLGASEFCLHTARQYALDRMQFGVPLARNQLIQKKLADMLTEITLGLHACLQLGRLKDQDKAAPEMVSLLKRNNCGKALDIARQARDMLGGNGISDEYHVIRHAMNLEAVNTYEGTHDIHALILGRAITGIQAFTASK [R227P] | increasing interaction strength
MALRGVSVRLLSRGPGLHVLRTWVSSAAQTEKGGRTQSQLAKSSRPEFDCQDPLVLEEQLTTDEILIRDTFRTYCQERLMPRILLANRNEVFHREIISEMGELGVLGPTIKGYGCAGVSSVAYGLLARELERVDSGYRSAMSVQSSLVMHPIYAYGSEEQRQKYLPQLAKGELLGCFGLTEPNSGSDPSSMETRAHYNSSNKSYTLNGTKTWITNSPMADLFVVWARCEDGCIRGFLLEKGMRGLSAPRIQGKFSLRASATGMIIMDGVEVPEENVLPGASSLGGPFGCLNNARYGIAWGVLGASEFCLHTARQYALDRMQFGVPLARNQLIQKKLADMLTEITLGLHACLQLGRLKDQDKAAPEMVSLLKRNNCGKALDIARQARDMLGGNGISDEYHVIRHAMNLEAVNTYEGTHDIHALILGRAITGIQAFTASK [W50C] | increasing interaction strength
MALRGVSVRLLSRGPGLHVLRTWVSSAAQTEKGGRTQSQLAKSSRPEFDWQDPLVLEEQLTTDEILIRDTFRTYCQERLMPRILLANRNEVFHREIISEMGELGVLGPTIKGYGCARVSSVAYGLLARELERVDSGYRSAMSVQSSLVMHPIYAYGSEEQRQKYLPQLAKGELLGCFGLTEPNSGSDPSSMETRAHYNSSNKSYTLNGTKTWITNSPMADLFVVWARCEDGCIRGFLLEKGMRGLSAPRIQGKFSLRASATGMIIMDGVEVPEENVLPGASSLGGPFGCLNNARYGIAWGVLGASEFCLHTARQYALDRMQFGVPLARNQLIQKKLADMLTEITLGLHACLQLGRLKDQDKAAPEMVSLLKRNNCGKALDIARQARDMLGGNGISDEYHVIRHAMNLEAVNTYEGTHDIHALILGRAITGIQAFTASK [G117R] | decreasing interaction strength
MALRGVSVRLLSRGPGLHVLRTWVSSAAQTEKGGRTQSQLAKSSRPEFDWQDPLVLEEQLTTDEILIRDTFRTYCQERLMPRILLANRNEVFHREIISEMGELGVLGPTIKGYGCAGVSSVAYGLLARELERVDSGYRSAMSVQSSLVMHPIYAYGSEEQQQKYLPQLAKGELLGCFGLTEPNSGSDPSSMETRAHYNSSNKSYTLNGTKTWITNSPMADLFVVWARCEDGCIRGFLLEKGMRGLSAPRIQGKFSLRASATGMIIMDGVEVPEENVLPGASSLGGPFGCLNNARYGIAWGVLGASEFCLHTARQYALDRMQFGVPLARNQLIQKKLADMLTEITLGLHACLQLGRLKDQDKAAPEMVSLLKRNNCGKALDIARQARDMLGGNGISDEYHVIRHAMNLEAVNTYEGTHDIHALILGRAITGIQAFTASK [R161Q] | increasing interaction strength
MALRGVSVRLLSRGPGLHVLRTWVSSAAQTEKGGRTQSQLAKSSRPEFDWQDPLVLEEQLTTDEILIRDTFRTYCQERLMPRILLANRNEVFHREIISEMGELGVLGPTIKGYGCAGVLSVAYGLLARELERVDSGYRSAMSVQSSLVMHPIYAYGSEEQRQKYLPQLAKGELLGCFGLTEPNSGSDPSSMETRAHYNSSNKSYTLNGTKTWITNSPMADLFVVWARCEDGCIRGFLLEKGMRGLSAPRIQGKFSLRASATGMIIMDGVEVPEENVLPGASSLGGPFGCLNNARYGIAWGVLGASEFCLHTARQYALDRMQFGVPLARNQLIQKKLADMLTEITLGLHACLQLGRLKDQDKAAPEMVSLLKRNNCGKALDIARQARDMLGGNGISDEYHVIRHAMNLEAVNTYEGTHDIHALILGRAITGIQAFTASK [S119L] | decreasing interaction strength
MALRGVSVRLLSRGPGLHVLRTWVSSAAQTEKGGRTQSQLAKSSRPEFDWQDPLVLEEQLTTDEILIRDTFRTYCQERLMPRILLANCNEVFHREIISEMGELGVLGPTIKGYGCAGVSSVAYGLLARELERVDSGYRSAMSVQSSLVMHPIYAYGSEEQRQKYLPQLAKGELLGCFGLTEPNSGSDPSSMETRAHYNSSNKSYTLNGTKTWITNSPMADLFVVWARCEDGCIRGFLLEKGMRGLSAPRIQGKFSLRASATGMIIMDGVEVPEENVLPGASSLGGPFGCLNNARYGIAWGVLGASEFCLHTARQYALDRMQFGVPLARNQLIQKKLADMLTEITLGLHACLQLGRLKDQDKAAPEMVSLLKRNNCGKALDIARQARDMLGGNGISDEYHVIRHAMNLEAVNTYEGTHDIHALILGRAITGIQAFTASK [R88C] | increasing interaction strength
MALRGVSVRLLSRGPGLHVLRTWVSSAAQTEKGGRTQSQLAKSSRPEFDWQDPLVLEEQLTTDEILIRDTFRTYCQERLMPRILLANRNEVFHREIISEMRELGVLGPTIKGYGCAGVSSVAYGLLARELERVDSGYRSAMSVQSSLVMHPIYAYGSEEQRQKYLPQLAKGELLGCFGLTEPNSGSDPSSMETRAHYNSSNKSYTLNGTKTWITNSPMADLFVVWARCEDGCIRGFLLEKGMRGLSAPRIQGKFSLRASATGMIIMDGVEVPEENVLPGASSLGGPFGCLNNARYGIAWGVLGASEFCLHTARQYALDRMQFGVPLARNQLIQKKLADMLTEITLGLHACLQLGRLKDQDKAAPEMVSLLKRNNCGKALDIARQARDMLGGNGISDEYHVIRHAMNLEAVNTYEGTHDIHALILGRAITGIQAFTASK [G101R] | increasing interaction strength
MALRGVSVRLLSRGPGLHVLRTWVSSAAQTEKGGRTQSQLAKSSRPEFDWQDPLVLEEQLTTDEILIRDTFRTYCQERLMPRILLANRNKVFHREIISEMGELGVLGPTIKGYGCAGVSSVAYGLLARELERVDSGYRSAMSVQSSLVMHPIYAYGSEEQRQKYLPQLAKGELLGCFGLTEPNSGSDPSSMETRAHYNSSNKSYTLNGTKTWITNSPMADLFVVWARCEDGCIRGFLLEKGMRGLSAPRIQGKFSLRASATGMIIMDGVEVPEENVLPGASSLGGPFGCLNNARYGIAWGVLGASEFCLHTARQYALDRMQFGVPLARNQLIQKKLADMLTEITLGLHACLQLGRLKDQDKAAPEMVSLLKRNNCGKALDIARQARDMLGGNGISDEYHVIRHAMNLEAVNTYEGTHDIHALILGRAITGIQAFTASK [E90K] | increasing interaction strength
